Reference: patent publication US6773704B1, “Methods of treating vascular disease associated with cystatin C deficiency” (The Brigham and Women's Hospital, Inc., priority 1999, dated 2004)
“Also recorded” adds a separate entry of the source.

B1: recombinant cystatin C: 13 kDa extracellular inhibitor of cysteine proteases, human sequence SEQ ID NO:1; native or recombinant (protein, UniProt P01034 27-146, looked up)
Cystatin-C: SSPGKPPRLVGGPMDASVEEEGVRRALDFAVGEYNKASNDMYHSRALQVVRARKQIVAGVNYFLDVELGRTTCTKTQPNLDNCPFHDQPHLKRKAFCSFQIYAVPWQGTMTLSKSTCQDA
B2: IFN-γ: pro-inflammatory cytokine used at 500 units/ml to stimulate smooth muscle cell cathepsin S-dependent elastase activity (protein, UniProt P01579 24-161, looked up)
Interferon gamma: QDPYVKEAENLKKYFNAGHSDVADNGTLFLGILKNWKEESDRKIMQSQIVSFYFKLFKNFKDDQSIQKSVETIKEDMNVKFFNSNKKKRDDFEKLTNYSVTDLNVQRKAIHELIQVMAELSPAAKTGKRKRSQMLFRG

Columns and labels:
Type in all cases: cell-based, human
[1] = test system: cathepsin S and cystatin C protein/secretion by smooth muscle cells; experiment: Immunoblot analysis of smooth muscle cell lysates and culture medium; conditions: for cystatin C secretion (level of secreted cystatin C): cultured vascular smooth muscle cells, culture medium
Method: Human sapheneous vein smooth muscle cells were cultured in Swell plates in Dulbecco's Modification of Eagle's Medium (DMEM) containing 10% fetal bovine serum (FBS) until confluent. […] Culture medium was then collected and centrifuged at 16000×g for 10 min. Proteins were precipitated with 20% trichloroacetic acid on ice for 30 min. followed by repeat centrifugation. The protein pellet was briefly washed with 100% ethanol and resuspended in electrophoresis sample buffer smooth muscle cells were lysed directly into sample buffer after two washes with 1×PBS. Both cell lysates and proteins from culture medium were separated on SDS-PAGE for immunoblot analysis with antibodies against human cathepsin S and cystatin C as described above. All Western blots were developed with Western Blot Chemiluminescence Reagent (NEN Life Science Products, Inc., Boston, Mass., USA).

[2] = test system: IFN-γ-stimulated smooth muscle cells elastase activity; experiment: Elastase assay: smooth muscle cells co-cultured with insoluble [3H]-elastin
Text: FIG. 2 is a bar graph showing that smooth muscle cells elastase activity is inhibited by recombinant cystatin C. Interferon-γ stimulated smooth muscle cells were co-cultured in serum-free medium with insoluble elastin in the presence of increasing concentrations of cystatin C as indicated in the panel. After 72 hrs, media were collected and soluble radioactivity measured as an index of elastin degradation.
FIG. 3 is a graph showing that TGF-β1 blocks smooth muscle cells elastase activity. Interferon-stimulated smooth muscle cells were co-cultured with elastin as above in the presence of increasing amounts of TGF-β1 and elastin degradation quantified after 72 hrs.
Prior studies documenting the capacity of macrophages to use cysteine proteases to degrade elastin found macrophage elastolytic activity to be insensitive to the presence of pericellular serum protease inhibitors (Reedy et al., 92 Porch. Natl. Acad. Sci. 3849-853 (1995); Chapman et al., 74 J. Clin. Invest. 1693-700 (1984)). Given the marked reduction of cystatin C in atherosclerotic and aneurysmal lesions and the clinical correlation in EXAMPLES 1-3, the influence of cystatin C on the elastolytic activity of cultured vascular smooth muscle cells was examined. Vascular smooth muscle cells were stimulated with IFN-γ (500 units/ml) for 24 hours to augment cathepsin S-dependent elastase activity (Sukhova et al., 102 J. Clin. Invest. 576-83 (1998)). In co-cultures with insoluble elastin, the addition of as little as 10 ng/ml of recombinant cystatin C inhibits elastin degradation (FIG. 2). Higher concentrations of cystatin C block >75% of the IFNγ-induced activity, confirming that smooth muscle cells elastase activity depends largely on elastolytic cysteine proteases.
The elastase assay was performed as follows: Smooth muscle cells were cultured on 24-well plates in 10% FBS DMEM until 100% confluence (5×10^5 cells/well). […] The digested elastin radioactivity was counted using 200 μl of medium and the data presented as μg elastin degraded per 10^6 cells in 24 hours.

[3] = test system: cathepsin S and cystatin C mRNA in smooth muscle cells; experiment: Northern blot analysis of smooth muscle cell RNA
Method: Total RNAs were isolated from control and IFN-γ-stimulated smooth muscle cells for Northern blot analysis. Northern blot analysis was performed as follows: After INF-γ and TGF-β1 treatments, 1.5×10^7 smooth muscle cells were lysed in 5 ml of guanidium. isothiocyanate (GTC) lysis buffer for RNA preparation as described (Sukhova et al., 102 J. Clin. Invest. 576-83 (1998)). Twenty micrograms of total RNA from smooth muscle cells were separated on 1.2% agarose gel and blotted on Zeta-Probe GT blotting membrane (Bio-Rad Laboratories, Inc.). A human cystatin C probe was generated by polymerase chain reaction using cystatin C cDNA. The 500 bp cystatin C cDNA fragment and cathepsin S cDNA probe (Sukhova et al., 102 J. Clin. Invest 576-83 (1998)) were labeled with [^32P]-dCTP and purified with NENSORB 20 column (NEN Life Science Products, Inc.) before hybridizing as previously described (Sukhova et al., 102 J. Clin. Invest. 576-83 (1998)).

[4] = smooth muscle cells, TGF-β1 5 ng/ml
[5] = smooth muscle cells stimulated with IFN-γ (500 units/ml)

Molecule | cystatin C secretion (level of secreted cystatin C) [1] | time after exposure at which cystatin C biosynthesis increases ([1]; smooth muscle cells exposed to TGF-β1) | level of cathepsin S protein [1, 4] | concentration that almost completely blocks elastase activity ([2]; IFN-γ-stimulated smooth muscle cells, elastin degradation after 72 hrs) | level of cathepsin S mRNA [3, 4] | level of cystatin C mRNA [3, 4] | concentration that inhibits elastin degradation (elastolytic activity) ([2]; IFN-γ (500 units/ml) stimulated vascular smooth muscle cells co-cultured with insoluble elastin, 72 hrs) | block of IFNγ-induced elastase activity ([2]; higher concentrations of cystatin C (tested 0-500 ng/ml), IFN-γ-stimulated smooth muscle cells) | secretion of active cathepsin S [1, 5] | cathepsin S mRNA [3, 5]
TGF-β1: transforming growth factor-β1, native or recombinant cytokine (SEQ ID NO:2); induces cystatin C secretion | markedly increases; also recorded: stimulates; also recorded: potent inducer | one | does not change | ≤ 1 ng/mL | does not change | does not change | – | – | – | –
B1 | – | – | – | – | – | – | ≤ 10 ng/mL | > 75% | – | –
B2 | no effect | – | – | – | – | – | – | – | induces | induces
